# Data as given in publication PMC11637584 (2024).
# B1: MERS-CoV papain-like protease (PLpro) PLpro (protein)
# chain: QLTIEVLVTVDGVNFRTVVLNNKNTYRSQLGCVFFNGADISDTIPDEKQNGHSLYLADNLTADETKALKELYGPVDPTFLHRFYSLKAAVHKWKMVVCDKVRSLKLSDNNCYLNAVIMTLDLLKDIKFVIPALQHAFMKHKGGDSTDFIALIMAYGNCTFGAPDDASRLLHTVLAKAELCCSARMVWREWCNVCGIKDVVLQGLKACCYVGVQTVEDLRARMTYVCQCGGERHRQIVEHTTPWLLLSGTPNEKLVTTSTAPDFVAFNVFQGIETAVGHYVHARLKGGLILKFDSGTVSKTSDWKCKVTDVLFPGQKYSSDCN
# Target: Ubiquitin (Homo sapiens, UniProt P0CG48)
# Assay: BLI
binder,measurement,value
B1,Kd,40.8 µM
